Test results from EP4684807A1, “LINKER AND USE THEREOF IN LIGAND DRUG CONJUGATE” (priority 2023, dated 2024).

Molecular target: T1, ADAM9 on ADAM9-positive cells (Calu-3, Ls174T) (UniProt Q13443 29-819, limits assumed)
T1 sequence (looked up): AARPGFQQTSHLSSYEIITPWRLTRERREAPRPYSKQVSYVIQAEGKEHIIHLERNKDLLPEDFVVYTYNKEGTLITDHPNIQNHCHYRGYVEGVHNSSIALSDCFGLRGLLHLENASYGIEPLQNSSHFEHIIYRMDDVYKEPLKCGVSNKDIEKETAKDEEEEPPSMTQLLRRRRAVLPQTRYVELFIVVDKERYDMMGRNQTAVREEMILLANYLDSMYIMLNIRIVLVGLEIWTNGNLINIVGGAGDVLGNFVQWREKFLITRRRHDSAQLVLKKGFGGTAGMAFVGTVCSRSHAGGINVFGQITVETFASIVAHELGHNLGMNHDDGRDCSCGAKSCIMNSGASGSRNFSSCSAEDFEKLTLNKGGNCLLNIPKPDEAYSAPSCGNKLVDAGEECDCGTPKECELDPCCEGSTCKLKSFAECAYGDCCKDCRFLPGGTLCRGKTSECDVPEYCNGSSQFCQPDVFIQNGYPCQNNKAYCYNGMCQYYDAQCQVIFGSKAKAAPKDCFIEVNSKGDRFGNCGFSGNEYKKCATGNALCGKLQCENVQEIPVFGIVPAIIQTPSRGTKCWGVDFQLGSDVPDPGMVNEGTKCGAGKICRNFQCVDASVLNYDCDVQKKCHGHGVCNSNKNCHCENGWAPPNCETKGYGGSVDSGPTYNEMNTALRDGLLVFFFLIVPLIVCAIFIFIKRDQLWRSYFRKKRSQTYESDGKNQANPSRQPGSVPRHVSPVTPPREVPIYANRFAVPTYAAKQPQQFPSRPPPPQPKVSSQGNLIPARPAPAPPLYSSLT
Test: cell-based or functional assay

B1: ADC-3D-1 (Reference ADC-22C) (antibody, human IgG1, kappa, V domains shown)
VH: QVQLQQPGTEVVKPGASVKLSCKASGFTFPLYWMHWVRQRPGRGLEWIGRIIPIFGHTKYNEKFKNKATLTADESSSTAYMELRSLTSDDSAVYYCARGGYYYYPREGFLDYWGQGTSVTVSS
VL: DIVMTQSPASLSVSPGERASISCRSSQSVDYSGDSYMNWYQQKPGQSPRLLIYAASDRESGVPDRFSGSGSGTDFTLKISRVEEEDAGTYYCQQSREDPFTFGQGTKVDIKR
modifications: control linker-payload conjugated to antibody thiols after TCEP reduction; DAR (k) 7.5 for the whole antibody
IC50 (nM), inhibition of cell proliferation, Calu-3 cells, CellTiter-Glo, 6 days: 0.34 nM

B2: ADC-2D-1 (Reference ADC-20C) (antibody, human IgG1, kappa, V domains shown)
VH: QVQLQQPGTEVVKPGASVKLSCKASGFTFPLYWMHWVRQRPGRGLEWIGRIIPIFGHTKYNEKFKNKATLTADESSSTAYMELRSLTSDDSAVYYCARGGYYYYPREGFLDYWGQGTSVTVSS
VL: DIVMTQSPASLSVSPGERASISCRSSQSVDYSGDSYMNWYQQKPGQSPRLLIYAASDRESGVPDRFSGSGSGTDFTLKISRVEEEDAGTYYCQQSREDPFTFGQGTKVDIKR
modifications: control linker-payload conjugated to antibody thiols after TCEP reduction; DAR (k) 4.3 for the whole antibody
IC50 (nM), inhibition of cell proliferation, Ls174T cells, CellTiter-Glo, 6 days: 27.1 nM

B3: ADC-4D-1 (Reference ADC-22C) (antibody, human IgG1, kappa, V domains shown)
VH: QVQLQQPGTEVVKPGASVKLSCKASGFTFPLYWMHWVRQRPGRGLEWIGRIIPIFGHTKYNEKFKNKATLTADESSSTAYMELRSLTSDDSAVYYCARGGYYYYPREGFLDYWGQGTSVTVSS
VL: DIVMTQSPASLSVSPGERASISCRSSQSVDYSGDSYMNWYQQKPGQSPRLLIYAASDRESGVPDRFSGSGSGTDFTLKISRVEEEDAGTYYCQQSREDPFTFGQGTKVDIKR
modifications: control linker-payload conjugated to antibody thiols after TCEP reduction; DAR (k) 7.6 for the whole antibody
IC50 (nM), inhibition of cell proliferation, Calu-3 cells, CellTiter-Glo, 6 days: 0.78 nM

B4: ADC-1D-1 (Reference ADC-20C) (antibody, human IgG1, kappa, V domains shown)
VH: QVQLQQPGTEVVKPGASVKLSCKASGFTFPLYWMHWVRQRPGRGLEWIGRIIPIFGHTKYNEKFKNKATLTADESSSTAYMELRSLTSDDSAVYYCARGGYYYYPREGFLDYWGQGTSVTVSS
VL: DIVMTQSPASLSVSPGERASISCRSSQSVDYSGDSYMNWYQQKPGQSPRLLIYAASDRESGVPDRFSGSGSGTDFTLKISRVEEEDAGTYYCQQSREDPFTFGQGTKVDIKR
modifications: control linker-payload conjugated to antibody thiols after TCEP reduction; DAR (k) 4.4 for the whole antibody
IC50 (nM), inhibition of cell proliferation, Ls174T cells, CellTiter-Glo, 6 days: 15.3 nM
